We go through one substance from US20170267757A1.

Assay in all cases: sandwich ELISA, antibody as capture 100 ng/well, CHO-K1 supernatant, anti-human Ig-HRP
Assay [1] addresses CD66c-HuIgFc recombinant antigen (human).
The target in assay [2] is CD66c mutant (HPK/HdIII/PstI/klenow)-hFc (human).
Assay [3] addresses CD66c mutant (BI/BHI)-hFc (human).

Sequence of CD66c mutant (HPK/HdIII/PstI/klenow)-hFc (human) (chain, as listed by the source mutant limits assumed, form in doubt): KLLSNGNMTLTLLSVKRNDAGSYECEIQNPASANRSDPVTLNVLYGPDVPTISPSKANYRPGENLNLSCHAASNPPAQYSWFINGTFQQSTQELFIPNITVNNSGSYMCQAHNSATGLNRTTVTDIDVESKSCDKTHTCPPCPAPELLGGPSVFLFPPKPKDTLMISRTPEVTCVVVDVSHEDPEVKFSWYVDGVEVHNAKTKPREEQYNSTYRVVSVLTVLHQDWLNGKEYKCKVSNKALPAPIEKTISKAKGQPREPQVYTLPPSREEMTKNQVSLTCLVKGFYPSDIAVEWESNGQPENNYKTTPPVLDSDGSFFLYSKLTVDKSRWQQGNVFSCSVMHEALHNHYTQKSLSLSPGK
Sequence of CD66c mutant (BI/BHI)-hFc (human) (chain, as listed by the source mutant limits assumed, form in doubt): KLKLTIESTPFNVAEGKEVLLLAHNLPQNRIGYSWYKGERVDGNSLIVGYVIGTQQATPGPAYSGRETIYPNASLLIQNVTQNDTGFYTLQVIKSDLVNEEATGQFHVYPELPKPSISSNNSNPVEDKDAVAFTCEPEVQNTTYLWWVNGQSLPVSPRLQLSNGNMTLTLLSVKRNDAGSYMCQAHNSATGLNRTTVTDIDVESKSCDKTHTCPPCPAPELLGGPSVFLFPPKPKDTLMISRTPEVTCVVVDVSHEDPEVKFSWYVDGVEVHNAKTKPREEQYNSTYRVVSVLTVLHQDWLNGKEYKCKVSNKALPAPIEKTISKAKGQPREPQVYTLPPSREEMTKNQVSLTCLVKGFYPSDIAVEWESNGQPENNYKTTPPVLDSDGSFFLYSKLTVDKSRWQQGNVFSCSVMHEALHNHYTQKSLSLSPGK
Sequence of CD66c-HuIgFc recombinant antigen (human) (chain, as listed by the source limits assumed): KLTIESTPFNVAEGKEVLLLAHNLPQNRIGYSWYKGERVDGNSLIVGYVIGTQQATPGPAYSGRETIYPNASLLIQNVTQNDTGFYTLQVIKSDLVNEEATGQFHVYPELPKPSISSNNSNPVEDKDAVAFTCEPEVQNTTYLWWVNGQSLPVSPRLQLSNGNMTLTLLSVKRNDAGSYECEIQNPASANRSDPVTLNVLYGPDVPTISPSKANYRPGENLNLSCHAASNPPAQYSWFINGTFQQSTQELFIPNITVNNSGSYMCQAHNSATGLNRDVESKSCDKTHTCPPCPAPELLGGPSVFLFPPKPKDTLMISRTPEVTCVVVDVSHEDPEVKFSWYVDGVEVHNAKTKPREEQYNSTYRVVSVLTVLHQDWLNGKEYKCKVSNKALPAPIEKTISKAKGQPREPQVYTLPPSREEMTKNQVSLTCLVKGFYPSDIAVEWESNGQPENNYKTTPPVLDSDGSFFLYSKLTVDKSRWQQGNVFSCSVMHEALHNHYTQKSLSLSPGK

Turning to “9A6 anti-CD66c monoclonal antibody (Santa Cruz)”, the results for the absorbance at 450 nm (absorbance at 450 nm) in assay [1], in assay [2] and in assay [3] were 2.84, 0.049 and 1.92, respectively.
